Data reported in the supplement of paper PMC12455559.
± gives the standard deviation of the averaged measurements.

Assays:
[1] = PET hydrolysis, aromatic products released after 48 h (umol product/mg enzyme); higher = more PET depolymerization activity
In short: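 PET hydrolysis activity was taken as the aromatic product in the supernatant and expressed per mg enzyme. This product was measured by absorbance at 260 and 280 nm against buffer blanks. Each reaction held 5 μg (50 μL) of tagless, SUMO-cleaved candidate enzyme purified on nickel beads, plus 3.5 mg amorphous PET film or crystalline PET powder in 450 μL buffer: 50 mM NaCitrate (pH 4.5, 5.5), 50 mM NaPhosphate (pH 6.5, 7.5) or glycine (pH 8.5). Plates were sealed and left 48 h at 40 or 60 °C without shaking.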

[2] = purified protein yield per well (BCA); higher = higher soluble expression
In short: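 Candidate enzymes were produced in E. coli C41(DE3) grown in 2 mL autoinduction cultures containing 100 µg/mL kanamycin, first at 37 °C for 2 h and then at 18 °C for 40 h. After cell lysis, protein was captured on Ni-charged magnetic beads and freed by SUMO protease cleavage on an OT-2 robot. Purified protein yield per well was read with the Pierce Rapid Gold BCA kit. Values under 25 ug (0.1 mg/mL) fall below the detection threshold.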

[3] = melting temperature (DSF); higher = more thermostable
In short: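 On a Bio-Rad CFX96, fluorescence of 45 μL enzyme (0 to 0.3 mg/mL) mixed with 5 μL 5X Sypro Orange in sealed PCR plates was followed from 25 °C through 250 cycles of 0.3 °C, with a 0.3 °C/s ramp. The enzymes had been expressed in E. coli C41(DE3), taken up on nickel beads and released by SUMO protease. Melting temperature, measured by differential scanning fluorimetry, is the value given.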

[4] = substrate: aFilm, 40 °C, pH 5.5
[5] = substrate: aFilm, 40 °C, pH 6.5
[6] = substrate: aFilm, 40 °C, pH 7.5
[7] = substrate: aFilm, 40 °C, pH 8.5
[8] = substrate: aFilm, 60 °C, pH 5.5
[9] = substrate: aFilm, 60 °C, pH 6.5
[10] = substrate: aFilm, 60 °C, pH 7.5
[11] = substrate: aFilm, 60 °C, pH 8.5
[12] = substrate: cryPow, 40 °C, pH 5.5
[13] = substrate: cryPow, 40 °C, pH 6.5
[14] = substrate: cryPow, 40 °C, pH 7.5
[15] = substrate: cryPow, 40 °C, pH 8.5
[16] = substrate: cryPow, 60 °C, pH 5.5
[17] = substrate: cryPow, 60 °C, pH 6.5
[18] = substrate: cryPow, 60 °C, pH 7.5
[19] = substrate: cryPow, 60 °C, pH 8.5
[20] = substrate: cryPow, 40 °C, pH 4.5
[21] = substrate: cryPow, 60 °C, pH 4.5

Sequence	PET hydrolysis [1, 4]	PET hydrolysis [1, 5]	PET hydrolysis [1, 6]	PET hydrolysis [1, 7]	PET hydrolysis [1, 8]	PET hydrolysis [1, 9]	PET hydrolysis [1, 10]	PET hydrolysis [1, 11]	PET hydrolysis [1, 12]	PET hydrolysis [1, 13]	PET hydrolysis [1, 14]	PET hydrolysis [1, 15]	PET hydrolysis [1, 16]	PET hydrolysis [1, 17]	PET hydrolysis [1, 18]	PET hydrolysis [1, 19]	purified protein yield per well [2]	melting temperature [3]	PET hydrolysis [1, 20]	PET hydrolysis [1, 21]	PET hydrolysis ([1]; substrate: aFilm, 40 °C, pH 4.5)	PET hydrolysis ([1]; substrate: aFilm, 60 °C, pH 4.5)
GETAQTTDVSAQSQFQRGPNPTVSSIEARTGHYRTSTTRVSSFASGFGGGTIYYPTTTSDGTFGGVAVAPGYTASSSTMDWLGPRIASQGFVVFVIDTNTRLDQPSSRGRQLLAALDYLTERSSERHRVDSNRLAVMGHSMGGGGALEATISRPSLKASIPLTPWNLTKNWSRVTTPTLIVGAENDSVASVRSHSIPFYTSLSSSTDRMYVELDGASHFAPNVSNTTIAKYSISWLKRFVDDDTRYDQFLCPLPNERAISDIRGNCPR [DP090]	< 3	5 ± 7.1	12 ± 7.1	22 ± 17	< 3	< 3	< 3	< 3	< 3	7	12.5 ± 9.2	25.5 ± 0.71	< 3	< 3	2 ± 2.8	2 ± 2.8	423 µg	51.4 C	–	–	–	–
ADNPYQRGPDPTRSSVAAVNGPFANTSVAVPTGYGFNGGRIYYPTDTSQGTFGAIAISPGYTALFSVELAWMGPWLASHGFVVIGIETNSRNDFDTARGTQLLAALDYLTQQSPVRDRVDPNRLAVSGHSMGGGGALSAAIRRSSLKAVVGIAPYSPSSNLANDRVPTMVFAGQADTVVTPSYATGLYNSLPATTESAYLEVAGADHGFMVGRSNPVLIRTMLPFLKMFVDNDARYSQFLCPLADNSGVVSYRSTCPLLPTTPTTPPPTPSDTPPPTPSGTPTTPPTTGPPGTASLVVGAQSGRCLDVPNASRANGTRVQLWDCNRQANQQWTYTSTRQLRVYGDMCLDAAGSGNGAAVQIYGCHGQPNQQWTVNANGTISGVQSGRCLDVWSTANGAQVQLYDCHGQTNQRFTLTPVA [ESM080]	–	–	–	–	–	–	–	–	18	9	4	–	–	–	–	–	56.6 µg	61.6 C	9	–	–	–
ADNPYQRGPEPTTSSVAATRGTFATAEVSVSKGNGFGGGKIYYPTDTSKGTFGAIAVVPGYTATWAAEGAWMGPWLASFGFVVIGIDTNSRTDYDTARGTQLLAALDYLTQKSSVRSRVDVKRLSVMGHSMGGGGAMYAALHRPSLWAAVGNAPFSPSQNLKSDRVPTLLLAGQKDTTVTPSSVVGLYNGIPAATEKGYLELTGAAHNFPTRSNSVMMRKVVPWLKIFVDHDTRYGQFLCPSLKDTTGITSYRSTCPLTTAGQ [ESM078]	–	–	–	–	–	–	–	–	< 3	< 3	< 3	–	< 3	< 3	< 3	–	68.8 µg	52 C	< 3	< 3	–	–
ANPYERGPDPTLASVEATSGTFAYASLSVSSGNGFGGGTIYYPTSTTDGTFAGIVTCPGFTNSGSSMAWFGKVLASQGFVTLVMNPKSNLDFPDARATQMLAALDWLTNSSSVKTRIDATRLGVLGQSMGGGATLKASKTRPSLKASFATAPYNSDKDWSTNTVPQFLFGMQNDTTAAVTNHALKFYNSLPATTPKIYAELRGAGHSTATSPNTSIRRYAVSFMKRNLDNDTRYSQFLCPGPTITSSSPLSAFMSNCLF [DP080]	< 3	< 3	< 3	1.5 ± 2.1	< 3	< 3	< 3	< 3	< 3	2 ± 2.8	6	8 ± 1.4	< 3	< 3	< 3	< 3	291 µg	63.1 C	–	–	–	–
ADNPYQRGPNPTLASVAATRGTFATAQINVPGGNGFGSGVIYYPTDTSQGTFGGVAIVPGYSALFANEEAWMGPWLASFGFVVIGIETNSRTDSADARGTQLLAALDYLTQRSSVRDRVDPSRLSVVGHSAGGAGVLSAVIRRPSLKAAVGLAPGSPVGNYELSADKVPLMFISGQKDTTVTQSYLNGLYTTIPASTPSAWVEITGVDHLFATRANTTEMRVLIPWLKIFLDNDTRYTQFLCPLADSSGISMYRNKCPYVPPGGSSPSPSATPSPSVSPSASPSASPSASPSVSPSASPSVSPSASPSASPSSQPSGACTASYKTVNSWPGGYQGEVTVTAGSAAINGWTVRWTLGSGQSVSQVWNGTLTTSGSTVTVKNVSYNGSLPAAGSATFGFLANGTASTPAVTCTSP [ESM004]	< 3	< 3	< 3	–	< 3	< 3	< 3	–	< 3	< 3	< 3	–	< 3	< 3	< 3	–	375 µg	55.9 C	< 3	< 3	< 3	< 3
